Results on 3 molecules are retold here after publication PMC5651247, “Factor H-Related (FHR)-1 and FHR-2 Form Homo- and Heterodimers, while FHR-5 Circulates Only As Homodimer in Human Plasma” (Frontiers in Immunology, 2017).

The chains are these.
B1: Recombinant human FHR-5 (rFHR-5), C-terminal 6×His (natural protein, UniProt Q9BXR6 19-569, looked up)
chain: EGTLCDFPKIHHGFLYDEEDYNPFSQVPTGEVFYYSCEYNFVSPSKSFWTRITCTEEGWSPTPKCLRMCSFPFVKNGHSESSGLIHLEGDTVQIICNTGYSLQNNEKNISCVERGWSTPPICSFTKGECHVPILEANVDAQPKKESYKVGDVLKFSCRKNLIRVGSDSVQCYQFGWSPNFPTCKGQVRSCGPPPQLSNGEVKEIRKEEYGHNEVVEYDCNPNFIINGPKKIQCVDGEWTTLPTCVEQVKTCGYIPELEYGYVQPSVPPYQHGVSVEVNCRNEYAMIGNNMITCINGIWTELPMCVATHQLKRCKIAGVNIKTLLKLSGKEFNHNSRIRYRCSDIFRYRHSVCINGKWNPEVDCTEKREQFCPPPPQIPNAQNMTTTVNYQDGEKVAVLCKENYLLPEAKEIVCKDGRWQSLPRCVESTAYCGPPPSINNGDTTSFPLSVYPPGSTVTYRCQSFYKLQGSVTVTCRNKQWSEPPRCLDPCVVSEENMNKNNIQLKWRNDGKLYAKTGDAVEFQCKFPHKAMISSPPFRAICQEGKFEYPICE
modifications: DyLight 488 or DyLight 594, 3 to 4 labels per monomer (the labelled copies of the FRET assays; unlabelled where added in excess)
notes: Complement factor H-related protein 5 (FHR-5), human; Labelled and unlabelled copies of the same construct are kept as one molecule; also called rFHR-5^488; rFHR-5^594; not shown: 6×His, C-terminal, kept
B2: Recombinant human FHR-2 (rFHR-2), C-terminal 6×His (natural protein, UniProt P36980 19-270, looked up)
chain: EAMFCDFPKINHGILYDEEKYKPFSQVPTGEVFYYSCEYNFVSPSKSFWTRITCAEEGWSPTPKCLRLCFFPFVENGHSESSGQTHLEGDTVQIICNTGYRLQNNENNISCVERGWSTPPKCRSTISAEKCGPPPPIDNGDITSFLLSVYAPGSSVEYQCQNLYQLEGNNQITCRNGQWSEPPKCLDPCVISQEIMEKYNIKLKWTNQQKLYSRTGDIVEFVCKSGYHPTKSHSFRAMCQNGKLVYPSCEEK
modifications: DyLight 488 or DyLight 594, 3 to 4 labels per monomer (the labelled copies of the FRET assays; unlabelled where added in excess and in the ELISA)
notes: Complement factor H-related protein 2 (FHR-2), human; Labelled and unlabelled copies of the same construct are kept as one molecule; also called rFHR-2^488; rFHR-2^594; not shown: 6×His, C-terminal, kept
B3: Recombinant human FHR-1 (rFHR-1), CFHR1*A allotype, C-terminal 6×His (natural protein, UniProt Q03591 19-330, looked up)
chain: EATFCDFPKINHGILYDEEKYKPFSQVPTGEVFYYSCEYNFVSPSKSFWTRITCTEEGWSPTPKCLRLCFFPFVENGHSESSGQTHLEGDTVQIICNTGYRLQNNENNISCVERGWSTPPKCRSTDTSCVNPPTVQNAHILSRQMSKYPSGERVRYECRSPYEMFGDEEVMCLNGNWTEPPQCKDSTGKCGPPPPIDNGDITSFPLSVYAPASSVEYQCQNLYQLEGNKRITCRNGQWSEPPKCLHPCVISREIMENYNIALRWTAKQKLYLRTGESAEFVCKRGYRLSSRSHTLRTTCWDGKLEYPTCAKR
notes: also called native rFHR-1; unlabeled rFHR-1; not shown: 6×His, C-terminal, kept

Data set [1] concerns the molecule itself. As to the kind of experiment: FRET or BRET; monomer exchange: equimolar DyLight 488- and 594-labelled protein mixed and followed in time; 37°C, 200 ng/mL in degassed PBS with 1 mg/mL IVIg; first-order exponential fit.
Data set [2] concerns the molecule itself. As to the kind of experiment: FRET or BRET; monomer exchange: pre-equilibrated 488- and 594-labelled protein, then a >5 times molar excess of unlabelled rFHR added; loss of FRET signal followed; 37°C, PBS with 1 mg/mL IVIg; first-order exponential fit. A general note: In BRET a luciferase serves as donor, and the signal depends on an acceptor being close.
Data set [3] deals with B2. The data set is described as above. Conditions: both partners purified.

In data set [1], B1 showed a dissociation half-life of less than 30 min. For the same molecule, the “observed rate constant k of monomer exchange” value in data set [2] was 0.0012 s⁻¹.
On to B2, for which, in data set [1], the dissociation half-life is less than 30 min. Moreover, in data set [2], the “observed rate constant k of monomer exchange” value amounted to 0.0004 s⁻¹.
Turning to B3, in data set [3], the “observed rate constant k of monomer exchange” value worked out at 0.00053 s⁻¹.
